Measured values reported in the nanobody polyreactivity screen of Harvey et al. (2022).

Test: yeast display, Sf9 membrane polyspecificity reagent, FACS + sequencing; frameworks hold sequencing errors
Method in brief: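 Using colony PCR, genes from sorted yeast display clones were amplified, then sequenced on MiSeq at 2 × 250 and filtered by CDR length. The clones had been stained with 10% biotinylated, detergent-solubilized Sf9 membrane reagent for 1 hour at 4 °C and sorted by FACS into low and high (top ~1%) gates on anti-HA and streptavidin fluorescence. Polyreactivity labels come from the gate of origin.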

Sequence | polyreactivity (PSR sort gate)
QVQLVESGGGLVQAGGSLRLSCAASGFIFVRNTMGWYRQAPGKERELVASISRRGRTTYYADSVKGRFTISRDNAKNTVSLQMNSLKPEDTAVYYCNARYRVPKQGDYWGQGTQVTVSS | high polyreactivity
QVQLVESGGGLVQAGGSLRLSCAASGFIFVRYAMGWSRPAPGKERELVDAISGSGGRTYYADSVKGRFTISRDNAKNTVYLQMNSLIPEDTAVYYCNVKSYTYGYLPYDYWGQGTQVTVSS | high polyreactivity
QVQLVESGGGLVQAGGSLRLSCAASGFIFVRYAMGWYRQAPGKERELVASITRSGGSTYYADSVKGRFTISRDNAKNTVYLQMNSLKPEDTAVYYCAASYYRSRGSTYGYWGQGTQVTVSS | high polyreactivity
QVQLVESGGGLVQAGGSLRLSCAASGFIFVRYTMGWYRQAPGKERELVAAISRSSDSTYYADSVKGRFSISRDNAKNTVYLQMNSLKPEVTAVYYCAAFSGFSPFRFYYWGQGTQVTVSS | high polyreactivity
QVQLVESGGGLVQAGGSLRLSCAASGFIFVSYALGWYRQAPGKETELVAAISSSGGTTNYADSVKGRFTISRDNAKNTVYLQMNSLKPEDTAVYYCAAYVYQTPHSLHIYDYWGQGTQVTVSS | low polyreactivity
QVQLVESGGGLVQAGGSLRLSCAASGFIFVSYAMGWYRQAPGKERELVAAIDRIGGITYYADSVKGRFSISRDNAKNTVYLQMNSLKPEDTAVYYCAAAARYATVRVGREYYWGQGTQVTVSS | low polyreactivity
QVQLVESGGGLVQAGGSLRLSCAASGFIFVTNVMGWYRQAPGKERELVAAISRRGTNTYYADSVKGRFTISRDNAKNTVYLQMNSLKPEDTAVYYCNKLVFHTGGFRYDYWGQGTQVTVSS | high polyreactivity
QVQLVESGGGLVQAGGSLRLSCAASGFIFVTYAMGWYRQAPGKERELVAAITNSGGTTYYADSVKGRFTISRDNAKNTVYLQMNSLKPEDTAVYYCNKPYGAETAHREFDYWGQGTQVTVSS | low polyreactivity
QVQLVESGGGLVQAGGSLRLSCAASGFIFVYGNVMGWYRQAPGKERDLVASITSDGGSTNYADSVKGRFTISRDNAKNTVYLQMNSLKPEDTAVYYCNADVPRGFGGEYDYWGQGTQVTVSS | low polyreactivity
QVQLVESGGGLVQAGGSLRLSCAASGFIFVYNAMGWYRQAPGKEREFVAGISRSGGNTYYADSVKGRFTISRDNAKNTVYLQMNSLKPEDTAVYYCAVVNRRFGFPNVALRSNYGDYWGQGTQVTVSS | low polyreactivity
QVQLVESGGGLVQAGGSLRLSCAASGFIFVYNDMGWYRPAPGKERELVASISNGDNTNYADSVKGRFTISRDNAKNTVYLQMNSLKQEDTAVYYCAARGTIYVLGVPARPVPDGDYWGQGTQVTVSS | low polyreactivity
QVQLVESGGGLVQAGGSLRLSCAASGFIFVYNVMGWYRQAPGKERELVAAITSGGSTNYADSVKGRFTISRDNAKNTVFLKMNSLKPEDTAVYYCNADIYPDWIYLLYGYWGQGTQVTVSS | low polyreactivity
QVQLVESGGGLVQAGGSLRLSCAASGFIFWENGMGWYRQAPGKERELVAAISSGVGRTYYADSVKGRFTISRDNAKNTVYLQMNSLKPEDTAVYYCNRARYYREFDYWGQGTQVTVSS | high polyreactivity
QVQLVESGGGLVQAGGSLRLSCAASGFIFWFNAIGWSRQEPGKEREWVATISWSDTSTYYADSVKGRFTISRDNAKNTVYLQMNSLKPEDTAVYYCATDGRETWLPEYYWGQGTQVTVSS | low polyreactivity
QVQLVESGGGLVQAGGSLRLSCAASGFIFWGNAMGWYRQAPGKERELVAAINYSGGRTYYADSVKGRFTISRDNAKNTVYLQMNSLKAEATAVNYCAAKYRYHVSGYDYWGQATQVTVSS | high polyreactivity
QVQLVESGGGLVQAGGSLRLSCAASGFIFWLYAMGWYRQAPGKERELVAAISSSGGNTYYADSVKGRFTISRDNAKNTVYLQMNSLKPEDTAVYYCAATYSYGRTYSGYYWGQGTQVTVSS | low polyreactivity
QVQLVESGGGLVQAGGSLRLSCAASGFIFWQYTMGWYRPAPGKERELVAAINGGSATYYADSVKGRFTISRDNAKNTVYLQMNSLKPEDTAVYYCAADRYLYHYRYEYYYWGQGTQVTVSS | high polyreactivity
QVQLVESGGGLVQAGGSLRLSCAASGFIFWRYTMGWYRQAPGKERELVAVISWSGDNTYADSVKGRFTISRDNAKNTVYLQMNSLKPEDTAVYYCGVYRYDYWGQGTQVTVSS | low polyreactivity
QVQLVESGGGLVQAGGSLRLSCAASGFIFWSNAMGWYRQAPGKERELVAAISWSGGSTYYADSVKGRFTISRDNAKNTVYLQMNSLKQEDTAVYYCAAEFWGWDWDLEYWGQGTQVTVSS | high polyreactivity
QVQLVESGGGLVQAGGSLRLSCAASGFIFWVNAMGWYRKAPGKERELVAAISSSYGSTYYADYVKGRFSISRDNAKNTVYLQMNRLKPEDTAVCYSAARWLGHFYPFFLQGLSGFDYWGQGTHVTVSS | low polyreactivity
QVQLVESGGGLVQAGGSLRLSCAASGFIFWYYAMGWYRQAPGKERELVATITRGGSTYYADSVKGRFTISRDNAKNTFYLQMNSLKPEDTAVYYCNAVRPKIYDYWGQGTQVTVSS | high polyreactivity

Sequence | polyreactivity (PSR sort gate)
QVQLVESGGGLVQAGGSLRLSCAASGFIFWYYTMGGYRQAPGKERELVAAISRSGASTYYADSVKGRFTISRDNAKNTVYLQMNSLKPEDTAVYYCAKDYQTYSGSSDFDYWGQGTQVTVSS | high polyreactivity
QVQLVESGGGLVQAGGSLRLSCAASGFIFYAYAMGWYRQAPGKERELVAAIDSGGNTYADSVKGRFTISRDNAKNTVYLQMNSLKPEDTAVYYCAVDGGEFSSYGYWGQGTQVTVSS | low polyreactivity
QVQLVESGGGLVQAGGSLRLSCAASGFIFYAYDMGWYRQAPGKERELVAAISRVGSTYYADSVKGRFTISRDNAKNTVYLQMNSLKPEDTAVYYCATKFGTTRGFGYWGQGTQVTVSS | high polyreactivity
QVQLVESGGGLVQAGGSLRLSCAASGFIFYDYAMGWNRQAPGKERELVAAISSGGSTNYADSVKGRFTISRDNAKNTVYLQMNSLKPEDTAVYFCAADDRSYASWKRDYDYWGQGTQVTVSS | low polyreactivity
QVQLVESGGGLVQAGGSLRLSCAASGFIFYDYAMGWYRQAPGKERELVAAISRGGSSTYYADSVKGRFTISRDNAKNTVYLQMNSLKPEDTAVYYCAAYRWYEYDYWGQGTQVTVSS | high polyreactivity
QVQLVESGGGLVQAGGSLRLSCAASGFIFYDYVMGWYRQAPGKERELVAAISASGGSTYYADSVKGRFTISRDNAKNTVYLQMNCLKPEDTAVYYCNARPKYDSGHYYWGQGTQVTVSS | high polyreactivity
QVQLVESGGGLVQAGGSLRLSCAASGFIFYEYDMGWYRQAPGKERELVAAISVSGGSTYYADSVKGRFTISRDNAKNTVYLQRNSLKPEDTAVYYCAVFLPDYGRYDYWGQGTQVTVSS | low polyreactivity
QVQLVESGGGLVQAGGSLRLSCAASGFIFYFNAMGWYRQAPGKERELVAAISASGGRTYFADSVKGRFTISRDNAKNTVYLLMNSLKPEDTAVYYCAARGGSYYFRRYNYWGQGTQVNVSS | high polyreactivity
QVQLVESGGGLVQAGGSLRLSCAASGFIFYGYMGWYRQAPGKERELVAAISYTGGSTYYADSVKGRFTISRDNAKNTVYLQMNSLKPEDTAVYYCARDWRTKWFGYWGQGTQVTVSS | low polyreactivity
QVQLVESGGGLVQAGGSLRLSCAASGFIFYGYVMGWYRQAPGKERELVAAITYNGGRTYYADSVKGRFTISRDNAKNTVYLQMNSLKPEDTAVYYCAALGYDGDYDYWGQGTQVTVSS | low polyreactivity
QVQLVESGGGLVQAGGSLRLSCAASGFIFYIYAMGWYRQAPGKERELVAAISWNGGSTYYADSVKGRFTISRDNAKNTVYLLMNSLKPEDTAVYYCATVARYRYGTGRFDYWGQGTQVTVSS | high polyreactivity
QVQLVESGGGLVQAGGSLRLSCAASGFIFYIYAMGWYRQAPGKEWELVAAISGGGGSTYYAASVKGRFTISRDNAKNTVYLQINSLKPEDTAVSYCAARYDVAWYSKRYSWGQGTQVTVSS | high polyreactivity
QVQLVESGGGLVQAGGSLRLSCAASGFIFYKNAMGLYRQAPGKERELVAAISRRGSSTYYADSVKGRFTISRDNAKNTVYLQMNSLKPEDTAVYYCAARFTRRDYWGQGTQVTVSS | high polyreactivity
QVQLVESGGGLVQAGGSLRLSCAASGFIFYKYAMGWYRQAPGKERELVAAITRSGGSTYYADSVKGRFTISRDNAKNTVYLQMNSLKPEDTAVYYCAKRSYRARDAVPGGFDSWGQGTQVTVSS | high polyreactivity
QVQLVESGGGLVQAGGSLRLSCAASGFIFYLYAMGWYRQAPGKERELVAAIDSGDDTDYADSVKGRFTISRDNAKNTVYLQMNSLKPEDTAVYYCAAGAYWPWGEDYWGQGTQVTVSS | high polyreactivity
QVQLVESGGGLVQAGGSLRLSCAASGFIFYLYAMGWYRQAPGKERELVAAISWDGGSTYYADSVKGRFTISRDNAKNTVYLQMNSLKPEDTAVYYCAADREFWWEVVYTYEYYYWGQGTQVTVSS | low polyreactivity
QVQLVESGGGLVQAGGSLRLSCAASGFIFYNYALGWYRQAPGKERELVAAISASGGRSYYADSVKGRFTISRDNAKNTVYLQMNRLKPEDTAVYYCNARVNYKGYDYWGQGTQVTVSS | high polyreactivity
QVQLVESGGGLVQAGGSLRLSCAASGFIFYNYAMGWYRQAPGKERELVAAITGGGSTNYADSVKGRLTISRDNPKNTVYLQMNSLKPEDTAVYYCAAEEGPPWSRYDYWGQGTQVTVSS | low polyreactivity
QVQLVESGGGLVQAGGSLRLSCAASGFIFYPYAMGWYRQAPGKERELVAVIRWSGGRTYYADSVKGRFTISRDNAKNTVYLQMNSLKPEDTSVYYCNARKITRYAVGPRKLGDYWGQGTQVTVTS | high polyreactivity
QVQLVESGGGLVQAGGSLRLSCAASGFIFYRNALGWYRQAPGKERELVAVIRWSGTSTSYADSVKGRFTISRDNAKNTVYLQMNSLKPEDTAVYYCNAAWYDLYGDSDGDDYWGQGTQVTVSS | low polyreactivity
